Assay results published in paper PMC4967042.

Assays:
Experiment in all cases: MST
RECQ1-C478A = RECQ1-C478A (human, UniProt P46063 1-649, C478A)
RECQ1-C475A = RECQ1-C475A (human, UniProt P46063 1-649, C475A)
RECQ1-C453A = RECQ1-C453A (human, UniProt P46063 1-649, C453A)
Chain of RECQ1-C453A (P46063 whole entry C453A): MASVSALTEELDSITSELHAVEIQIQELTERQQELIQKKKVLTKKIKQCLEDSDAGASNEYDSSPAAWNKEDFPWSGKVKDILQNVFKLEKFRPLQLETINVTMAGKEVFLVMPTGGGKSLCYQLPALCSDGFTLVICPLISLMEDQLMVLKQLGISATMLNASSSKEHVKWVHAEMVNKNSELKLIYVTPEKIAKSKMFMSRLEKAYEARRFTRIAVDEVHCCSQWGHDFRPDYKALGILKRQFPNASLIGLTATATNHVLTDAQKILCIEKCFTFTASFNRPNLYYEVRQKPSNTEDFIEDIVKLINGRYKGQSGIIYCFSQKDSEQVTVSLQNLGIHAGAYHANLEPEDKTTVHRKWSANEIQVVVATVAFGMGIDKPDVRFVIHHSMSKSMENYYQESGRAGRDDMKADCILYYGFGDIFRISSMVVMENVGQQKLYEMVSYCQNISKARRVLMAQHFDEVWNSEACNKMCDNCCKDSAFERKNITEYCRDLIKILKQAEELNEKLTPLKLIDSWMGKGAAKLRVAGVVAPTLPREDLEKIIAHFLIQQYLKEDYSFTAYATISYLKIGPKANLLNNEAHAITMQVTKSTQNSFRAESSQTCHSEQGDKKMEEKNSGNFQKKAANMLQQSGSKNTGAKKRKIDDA

Chain of RECQ1-C475A (P46063 whole entry C475A): as the sequence (P46063 whole entry C453A) above, with A453C, C475A counted along it
Chain of RECQ1-C478A (P46063 whole entry C478A): as the sequence (P46063 whole entry C453A) above, with A453C, C478A counted along it

B1: forked duplex T44/FLAP26 (dsDNA)
DNA 1: GCACTGGCCGTCGTTTTACGGTCGTGACTGGGAAAACCCTGGCG
DNA 2: TTTTTTTTTTTTTTTTTTTTTTCCAAGTAAAACGACGGCCAGTGC
- Kd (RECQ1-C478A): 602 nM
- Kd (RECQ1-C475A): 473 nM
- Kd (RECQ1-C453A): 276 nM
